In article PMC4475299, “Characterization and applications of Nanobodies against human procalcitonin selected from a novel naïve Nanobody phage display library” (Journal of Nanobiotechnology, 2015):

B1: PCT Nb2 (VHH)
VHH: QVQLQESGGGSVQAGGSLRLSCAASTSSNVNVCMGWFRQAPGKEREGVAVIARDSETNYAASVKGRFTISQDNAKNTLYLQLNSLKPEDTAMYYCAAGPCANIRGSWSNSRLLRYNFWGQGTQVTVSS
notes: VHH from a naïve bactrian camel phage display library; Expressed from phagemid pMECS; source: E. coli WK6, periplasmic extract by osmotic shock, purified (Ni-NTA, 500 mM imidazole); not shown: HA, C-terminal, kept
B2: PCT Nb1 (VHH)
VHH: QVQLQESGGGSVQAGGSLRLSCLASGYTYSSYCMGWFRQAPGKEREGVAAIGSDGSTSYADSVKGRFTISQDNAKNTLYLQMNSLKPEDTAMYYCAASKSEYDCYSGSGGLFGYWGQGTQVTVSS
notes: as for B1
B3: PCT Nb3 (VHH)
VHH: QVQLQESGGGSVQVGGSLRLSCAASGYTYSSACMGWFRQAPGKEREWVGSIVSDSDDRTNYADAVKGRFTITQDNAKNTVYLQMNSLKPEDTAMYYCAARPGNCFIATKTRRYDYWGQGTQVTVSS
notes: as for B1

Target: T1, human procalcitonin (Homo sapiens, UniProt P01258)
T1 construct: human procalcitonin (PCT), the product of preprocalcitonin after removal of the signal peptide; Bought protein; also called PCT; source: bought: Huibiao Biological Technology Co., Ltd
Test: SPR; SPRi on PlexArray HT; Nbs spotted and immobilised on NanoCapture 3D-chip; PCT injected at 9.7, 29.2, 87.6 and 263 nM in PBST, 2 uL/s; 1:1 Langmuir fit
Conditions: both partners purified

Binder | Kd [nM] | koff [s⁻¹] | kon [M⁻¹ s⁻¹]
B1 | 1.34 | 0.000197 | 147000
B2 | 12.3 | 0.00051 | 41600
B3 | 8.89 | 0.000383 | 43100
